Measurements published in US20250339504A1 (published 2025).

T1: FOXM1 peptide on HLA-A*24:02 (human)
T1 peptide: IYTWIEDHF

T2: GPC3 peptide on HLA-A*24:02 (human)
T2 peptide: EYILSLEEL

T3: GPC3 peptide on HLA-A2 (human)
T3 peptide: FVGEFFTDV


Biological target: T1, FOXM1 peptide on HLA-A*24:02
Experiment: multimer staining

Binder | binding result
②1E7 (TCR, V domains shown) Valpha: AQSVSQHNHHVILSEAASLELGCNYSYGGTVNLFWYVQYPGQHLQLLLKYFSGDPLVKGIKGFEAEFIKSKFSFNLRKPSVQWSDTAEYFCAVRHGGTGTASKLTFGTGTRLQVTL Vbeta: GAVVSQHPSWVICKSGTSVKIECRSLDFQATTMFWYRQFPKQSLMLMATSNEGSKATYEQGVEKDKFLINHASLTLSTLTVTSAHPEDSSFYICSARALGGYTFGSGTRLTVV | recognises
F5 (TCR, V domains shown) Valpha: KDQVFQPSTVASSEGAVVEIFCNHSVSNAYNFFWYLHFPGCAPRLLVKGSKPSQQGRYNMTYERFSSSLLILQVREADAAVYYCAVNQAGTALIFGKGTTLSVSS Vbeta: DTEVTQTPKHLVMGMTNKKSLKCEQHMGHRAMYWYKQKAKKPPELMFVYSYEKLSINESVPSRFSPECPNSSLLNLHLHALQPEDSALYLCASSQERTSGRSADTQYFGPGTRLTVL | recognises

Second part, the binder after the results:

binding result | Binder
recognises | 1F5 (TCR, V domains shown) Valpha: EDQVTQSPEALRLQEGESSSLNCSYTVSGLRGLFWYRQDPGKGPEFLFTLYSAGEEKEKERLKATLTKKESFLHITAPKPEDSATYLCAASNSGGSNYKLTFGKGTLLTVNP Vbeta: DSGVTQTPKHLITATGQRVTLRCSPRSGDLSVYWYQQSLDQGLQFLIQYYNGEERAKGNILERFSAQQFPDLHSELNLSSLELGDSALYFCASSVDGKGTQYFGPGTRLLVL
recognises | (21)1D5 (TCR, V domains shown) Valpha: QKEVEQDPGPLSVPEGAIVSLNCTYSNSAFQYFMWYRQYSRKGPELLMYTYSSGNKEDGRFTAQVDKSSKYISLFIRDSQPSDSATYLCAMSGHFNKFYFGSGTKLNVKP Vbeta: KAGVTQTPRYLIKTRGQQVTLSCSPISGHRSVSWYQQTPGQGLQFLFEYFSETQRNKGNFPGRFSGRQFSNSRSEMNVSTLELGDSALYLCASSLRAGELFFGEGSRLTVL

Biological target: T2, GPC3 peptide on HLA-A*24:02
Experiment: multimer staining

Binder | binding result
G9 (TCR, V domains shown) Valpha: KQEVTQIPAALSVPEGENLVLNCSFTDSAIYNLQWFRQDPGKGLTSLLLIQSSQREQTSGRLNASLDKSSGRSTLYIAASQPGDSATYLCAVTRRALTFGSGTRLQVQP Vbeta: KAGVTQTPRYLIKTRGQQVTLSCSPISGHRSVSWYQQTPGQGLQFLFEYFSETQRNKGNFPGRFSGRQFSNSRSEMNVSTLELGDSALYLCASSVTSGRTHTDTQYFGPGTRLTVL | recognises
i3C2 (TCR, V domains shown) Valpha: GQNIDQPTEMTATEGAIVQINCTYQTSGFNGLFWYQQHAGEAPTFLSYNVLDGLEEKGRFSSFLSRSKGYSYLLLKELQMKDSASYLCAVRVWKAAGNKLTFGGGTRVLVKP Vbeta: GAVVSQHPSWVICKSGTSVKIECRSLDFQATTMFWYRQFPKQSLMLMATSNEGSKATYEQGVEKDKFLINHASLTLSTLTVTSAHPEDSSFYICSARRLAGGGNEQFFGPGTRLTVL | recognises
(46)2A6 (TCR, V domains shown) Valpha: RKEVEQDPGPFNVPEGATVAFNCTYSNSASQSFFWYRQDCRKEPKLLMSVYSSGNEDGRFTAQLNRASQYISLLIRDSKLSDSATYLCKISGGYNKLIFGAGTRLAVHP Vbeta: DSGVTQTPKHLITATGQRVTLRCSPRSGDLSVYWYQQSLDQGLQFLIQYYNGEERAKGNILERFSAQQFPDLHSELNLSSLELGDSALYFCASSVGGGLGTEAFFGQGTRLTVV | recognises
i7E6, TRA of SEQ ID NO: 138 (TCR, V domains shown) Valpha: AQRVTQPEKLLSVFKGAPVELKCNYSYSGSPELFWYVQYSRQRLQLLLRHISRESIKGFTADLNKGETSFHLKKPFAQEEDSAMYYCALANQAGTALIFGKGTTLSVSS Vbeta: DSGVTQTPKHLITATGQRVTLRCSPRSGDLSVYWYQQSLDQGLQFLIQYYNGEERAKGNILERFSAQQFPDLHSELNLSSLELGDSALYFCASSPGGGASSPLHFGNGTRLTVT | recognises
il2G6, TRA of SEQ ID NO: 130 (TCR, V domains shown) Valpha: RKEVEQDPGPFNVPEGATVAFNCTYSNSASQSFFWYRQDCRKEPKLLMSVYSSGNEDGRFTAQLNRASQYISLLIRDSKLSDSATYLCVVNTGRRALTFGSGTRLQVQP Vbeta: DSGVTQTPKHLITATGQRVTLRCSPRSGDLSVYWYQQSLDQGLQFLIQYYNGEERAKGNILERFSAQQFPDLHSELNLSSLELGDSALYFCASSVGGGAGNTIYFGEGSWLTVV | recognises
i7E6, TRA of SEQ ID NO: 139 (TCR, V domains shown) Valpha: KQEVTQIPAALSVPEGENLVLNCSFTDSAIYNLQWFRQDPGKGLTSLLLIQSSQREQTSGRLNASLDKSSGRSTLYIAASQPGDSATYLCAVKRRAAGNKLTFGGGTRVLVKP Vbeta: DSGVTQTPKHLITATGQRVTLRCSPRSGDLSVYWYQQSLDQGLQFLIQYYNGEERAKGNILERFSAQQFPDLHSELNLSSLELGDSALYFCASSPGGGASSPLHFGNGTRLTVT | recognises

Results, then the binder that gave them:

binding result | Binder
recognises | eD3 (TCR, V domains shown) Valpha: RKEVEQDPGPFNVPEGATVAFNCTYSNSASQSFFWYRQDCRKEPKLLMSVYSSGNEDGRFTAQLNRASQYISLLIRDSKLSDSATYLCVVKGGNNFNKFYFGSGTKLNVKP Vbeta: NAGVTQTPKFQVLKTGQSMTLQCAQDMNHNSMYWYRQDPGMGLRLIYYSASEGTTDKGEVPNGYNVSRLNKREFSLRLESAAPSQTSVYFCASSHRVNSNQPQHFGDGTRLSIL
recognises | i2F3 (TCR, V domains shown) Valpha: RKEVEQDPGPFNVPEGATVAFNCTYSNSASQSFFWYRQDCRKEPKLLMSVYSSGNEDGRFTAQLNRASQYISLLIRDSKLSDSATYLCVVNKSWGKLQFGAGTQVVVTP Vbeta: DSGVTQTPKHLITATGQRVTLRCSPRSGDLSVYWYQQSLDQGLQFLIQYYNGEERAKGNILERFSAQQFPDLHSELNLSSLELGDSALYFCASSAGTSGNEQFFGPGTRLTVL
recognises | il2G6, TRA of SEQ ID NO: 129 (TCR, V domains shown) Valpha: LAKTTQPISMDSYEGQEVNITCSHNNIATNDYITWYQQFPSQGPRFIIQGYKTKVTNEVASLFIPADRKSSTLSLPRVSLSDTAVYYCLVGHSGNTPLVFGKGTRLSVIA Vbeta: DSGVTQTPKHLITATGQRVTLRCSPRSGDLSVYWYQQSLDQGLQFLIQYYNGEERAKGNILERFSAQQFPDLHSELNLSSLELGDSALYFCASSVGGGAGNTIYFGEGSWLTVV
recognises | eC7 (TCR, V domains shown) Valpha: SQQGEEDPQALSIQEGENATMNCSYKTSINNLQWYRQNSGRGLVHLILIRSNEREKHSGRLRVTLDTSKKSSSLLITASRAADTASYFCAVRYSSASKIIFGSGTRLSIRP Vbeta: DSGVTQTPKHLITATGQRVTLRCSPRSGDLSVYWYQQSLDQGLQFLIQYYNGEERAKGNILERFSAQQFPDLHSELNLSSLELGDSALYFCASSAGGGSNNEQFFGPGTRLTVL
recognises | i6E9 (TCR, V domains shown) Valpha: RKEVEQDPGPFNVPEGATVAFNCTYSNSASQSFFWYRQDCRKEPKLLMSVYSSGNEDGRFTAQLNRASQYISLLIRDSKLSDSATYLCVVNLGNYGQNFVFGPGTRLSVLP Vbeta: DSGVTQTPKHLITATGQRVTLRCSPRSGDLSVYWYQQSLDQGLQFLIQYYNGEERAKGNILERFSAQQFPDLHSELNLSSLELGDSALYFCASSVGGGLSNEQFFGPGTRLTVL
recognises | eC1 (TCR, V domains shown) Valpha: GESVGLHLPTLSVQEGDNSIINCAYSNSASDYFIWYKQESGKGPQFIIDIRSNMDKRQGQRVTVLLNKTVKHLSLQIAATQPGDSAVYFCAGRTGFQKLVFGTGTRLLVSP Vbeta: DSGVTQTPKHLITATGQRVTLRCSPRSGDLSVYWYQQSLDQGLQFLIQYYNGEERAKGNILERFSAQQFPDLHSELNLSSLELGDSALYFCASSVGGGLYNEQFFGPGTRLTVL

Biological target: T3, GPC3 peptide on HLA-A2
Experiment: multimer staining

binding result | Binder
recognises | i2B7 (TCR, V domains shown) Valpha: AQSVAQPEDQVNVAEGNPLTVKCTYSVSGNPYLFWYVQYPNRGLQFLLKYITGDNLVKGSYGFEAEFNKSQTSFHLKKPSALVSDSALYFCAVNPTGGGNKLTFGTGTQLKVEL Vbeta: DARVTQTPRDKVTEMGQEVTMRCQPILGHNTVFWYRQTMMQGLELLAYFRNRAPLDDSGMPKDRFSAEMPDATLATLKIQPSEPRDSAVYFCASGLGGNQPQHFGDGTRLSIL
recognises | ⑧2D9 (TCR, V domains shown) Valpha: QKEVEQNSGPLSVPEGAIASLNCTYSDRGSQSFFWYRQYSGKSPELIMFIYSNGDKEDGRFTAQLNKASQYVSLLIRDSQPSDSATYLCAVNMDGNNRLAFGKGNQVVVIP Vbeta: DAGITQSPRHKVTETGTPVTLRCHQTENHRYMYWYRQDPGHGLRLIHYSYGVKDTDKGEVSDGYSVSRSKTEDFLLTLESATSSQTSVYFCASVYGSEAFFGQGTRLTVV
recognises | ⑨5C6 (TCR, V domains shown) Valpha: AQSVTQPDIHITVSEGASLELRCNYSYGATPYLFWYVQSPGQGLQLLLKYFSGDTLVQGIKGFEAEFKRSQSSFNLRKPSVHWSDAAEYFCAVGSPSGYSTLTFGKGTMLLVSP Vbeta: EAQVTQNPRYLITVTGKKLTVTCSQNMNHEYMSWYRQDPGLGLRQIYYSMNVEVTDKGDVPEGYKVSRKEKRNFPLILESPSPNQTSLYFCASSPTRFYEQYFGPGTRLTVT
recognises | 52B11 (TCR, V domains shown) Valpha: QKEVEQDPGPLSVPEGAIVSLNCTYSNSAFQYFMWYRQYSRKGPELLMYTYSSGNKEDGRFTAQVDKSSKYISLFIRDSQPSDSATYLCAQRIVMEYGNKLVFGAGTILRVKS Vbeta: EPEVTQTPSHQVTQMGQEVILRCVPISNHLYFYWYRQILGQKVEFLVSFYNNEISEKSEIFDDQFSVERPDGSNFTLKIRSTKLEDSAMYFCASSEGAEAFFGQGTRLTVV

Biological target: T2, GPC3 peptide on HLA-A*24:02
Experiment: cytokine release

binding result | Binder
recognises | e1D8 (TCR, V domains shown) Valpha: GEDVEQSLFLSVREGDSSVINCTYTDSSSTYLYWYKQEPGAGLQLLTYIFSNMDMKQDQRLTVLLNKKDKHLSLRIADTQTGDSAIYFCAENHSSASKIIFGSGTRLSIRP Vbeta: DSGVTQTPKHLITATGQRVTLRCSPRSGDLSVYWYQQSLDQGLQFLIQYYNGEERAKGNILERFSAQQFPDLHSELNLSSLELGDSALYFCASSVGSGRNYEQYFGPGTRLTVT
